How the values were obtained:
[1] = target: hIGF-1R-Fc mutant SD008 (S258F) (human) (UniProt P08069); assay: SPR, Fab on receptor-Fc held on M13-C06 chip
[2] = target: hIGF-1R-Fc mutant SD019 (A739W_I741F) (human) (UniProt P08069); assay: SPR, Fab on receptor-Fc held on M13-C06 chip
Chain of hIGF-1R-Fc mutant SD019 (A739W_I741F) (human) (P08069 31-933, stated change not applied): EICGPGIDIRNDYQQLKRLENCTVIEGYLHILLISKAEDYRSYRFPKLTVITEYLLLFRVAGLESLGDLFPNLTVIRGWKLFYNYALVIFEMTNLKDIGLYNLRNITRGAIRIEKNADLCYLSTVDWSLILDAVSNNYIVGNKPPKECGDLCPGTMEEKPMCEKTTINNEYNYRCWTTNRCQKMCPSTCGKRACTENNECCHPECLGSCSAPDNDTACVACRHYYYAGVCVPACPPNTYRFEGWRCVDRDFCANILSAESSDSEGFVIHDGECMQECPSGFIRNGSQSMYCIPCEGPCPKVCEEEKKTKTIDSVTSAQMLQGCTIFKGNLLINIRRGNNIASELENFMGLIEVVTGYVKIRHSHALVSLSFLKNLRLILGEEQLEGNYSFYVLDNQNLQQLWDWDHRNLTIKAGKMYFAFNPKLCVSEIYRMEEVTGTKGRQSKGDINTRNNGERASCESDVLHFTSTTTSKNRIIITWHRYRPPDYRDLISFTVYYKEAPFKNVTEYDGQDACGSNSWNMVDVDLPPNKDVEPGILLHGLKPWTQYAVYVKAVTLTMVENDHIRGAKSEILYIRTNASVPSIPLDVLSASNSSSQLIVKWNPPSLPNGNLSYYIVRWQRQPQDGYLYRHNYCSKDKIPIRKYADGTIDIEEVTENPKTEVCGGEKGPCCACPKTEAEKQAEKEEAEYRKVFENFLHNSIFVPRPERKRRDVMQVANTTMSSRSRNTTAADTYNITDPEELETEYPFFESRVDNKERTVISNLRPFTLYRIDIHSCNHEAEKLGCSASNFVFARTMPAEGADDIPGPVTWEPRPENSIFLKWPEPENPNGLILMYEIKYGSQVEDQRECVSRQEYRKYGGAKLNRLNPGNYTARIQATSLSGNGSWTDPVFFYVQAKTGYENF

Chain of hIGF-1R-Fc mutant SD008 (S258F) (human) (P08069 31-933, stated change not applied): as above

B1: M13-C06 Fab (Fab, V domains shown)
VH: EVQLLESGGGLVQPGGSLRLSCAASGFTFSIYRMQWVRQAPGKGLEWVSGISPSGGTTWYADSVKGRFTISRDNSKNTLYLQMNSLRAEDTAVYYCARWSGGSGYAFDIWGQGTMVTVSS
VL: DIQMTQSPLSLSASVGDRVTITCQASRDIRNYLNWYQQKPGKAPKLLIYDASSLQTGVPSRFGGSGSGTDFSFTIGSLQPEDIATYYCQQFDSLPHTFGQGTKLEIK
Biacore Relative RUmax [1]: 1.5 | Biacore Relative RUmax [2]: 1.9

From patent US20070243194A1
